Consider one substance from US20160195541A1.

Test [1] addresses membrane-bound human FcγRIIB on Raji cells (human) (UniProt P31994). In words: FACS on Raji cells (FACS007), constant aggregated IgG; competitor SM101 0.25 µg/µL.
The target is the same in test [2]. Nature of the test: FACS on Raji cells (FACS007), constant aggregated IgG; competitor SM101 0.125 µg/µL.
For test [3] the target is unchanged. Nature of the test: FACS on Raji cells (FACS007), constant aggregated IgG; competitor SM101 0.0078 µg/µL.
Test [4] has the same target. In words: FACS on Raji cells (FACS021), constant aggregated IgG; competitor SM101 IMP 0.5 µg/µL.
For test [5] the target is unchanged. In words: FACS on Raji cells (FACS021), constant aggregated IgG; no competitor (Ref. Std. series).
For test [6] the target is unchanged. Nature of the test: FACS on Raji cells (FACS021), constant aggregated IgG; competitor SM101 IMP 0.0078 µg/µL.
Test [7] shares this target. In words: FACS on Raji cells (FACS021), constant aggregated IgG; competitor SM101 IMP 0.0625 µg/µL.
Test [8] has the same target. In words: FACS on Raji cells (FACS021), constant aggregated IgG; competitor SM101 Ref. Std. 0.5 µg/µL.
The target is the same in test [9]. Nature of the test: FACS on Raji cells, aggregated Beriglobin at 2.5 (µg/µL); mean of three batches.
Test [10] has the same target. In words: FACS on Raji cells (FACS021), constant aggregated IgG; competitor SM101 Ref. Std. 0.125 µg/µL.
Test [11] shares this target. Nature of the test: FACS on viable Raji cells (FcγRIIB) with aggregated Beriglobin and no SM101; detected with anti-human IgG(H+L)-PE secondary antibody.
For test [12] the target is unchanged. In words: FACS: 0.1E6 Raji cells (FcγRIIB) with 2.5 µg aggregated Beriglobin at the stated pH; 1/200 anti-human IgG(H+L)-PE; drawn table, secondary antibody control not subtracted. (Flow cytometry measures light scatter and fluorescence of single cells or particles in a stream.)
The target is the same in test [13]. In words: FACS: 0.1E6 Raji cells (FcγRIIB) with 2.5 µg aggregated Beriglobin at the stated pH; 1/200 anti-human IgG(H+L)-PE; drawn table, secondary antibody control not subtracted; pH 6.7.
Test [14] has the same target. In words: FACS: 0.1E6 Raji cells (FcγRIIB) with 2.5 µg aggregated Beriglobin at the stated pH; 1/200 anti-human IgG(H+L)-PE; drawn table, secondary antibody control not subtracted; pH 7.2.

UniProt P31994, sequence (P31994 43-310): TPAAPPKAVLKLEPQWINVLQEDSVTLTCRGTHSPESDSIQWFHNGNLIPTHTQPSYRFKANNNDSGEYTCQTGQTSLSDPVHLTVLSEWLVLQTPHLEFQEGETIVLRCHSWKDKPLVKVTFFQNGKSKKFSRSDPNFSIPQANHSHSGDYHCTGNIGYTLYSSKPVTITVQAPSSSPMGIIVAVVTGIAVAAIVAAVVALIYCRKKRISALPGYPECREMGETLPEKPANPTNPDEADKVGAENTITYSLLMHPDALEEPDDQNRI

On to “aggregated human IgG (aggregated Beriglobin, aggregated fraction isolated by size exclusion chromatography) (antibody)”, for which the Median Signal amounted to 197 in test [1]; 329 in [2]; 3010 in test [3]; 195 in [4]; 6460 in [5]; 5310 in test [6]. The Median Signal came to 831 in test [7], 182 in test [8] and 362 in test [10]. The substance also yielded a Median MFI (mean) in test [9] of 1280. The substance also returned a percent of gated viable cells in the upper right quadrant of the dot plot (PE-A above about 10^3) in test [11] of 84.7. This substance gave a Median MFI at pH 7 in [12] of 599. The same substance had a Median MFI at pH 7.8 in test [12] of 363. The substance also came in with a Median MFI at pH 8 in [12] of 348. In test [12], this substance had a Median MFI at pH 8.5 of 246. The substance further had a Median MFI at pH 9 in test [12] of 244. This substance registered a Median MFI at pH 10 in [12] of 177. The substance further came in with a Median MFI at pH 6.7 in test [13] of 578. Moreover, in test [14], the Median MFI at pH 7.2 stood at 561.
